These results are taken from patent publication US20240084003A1 (SIMCERE ZAIMING PHARMACEUTICAL, published 2024).

Assay [1] has as its target T1, human CD22-ECD-His protein (human, UniProt P20273 20-687).
T1 construct: Made in house in HEK293E; also called hCD22-ECD-His; recombinant human CD22-ECD His protein; not shown: His tag
T1 sequence: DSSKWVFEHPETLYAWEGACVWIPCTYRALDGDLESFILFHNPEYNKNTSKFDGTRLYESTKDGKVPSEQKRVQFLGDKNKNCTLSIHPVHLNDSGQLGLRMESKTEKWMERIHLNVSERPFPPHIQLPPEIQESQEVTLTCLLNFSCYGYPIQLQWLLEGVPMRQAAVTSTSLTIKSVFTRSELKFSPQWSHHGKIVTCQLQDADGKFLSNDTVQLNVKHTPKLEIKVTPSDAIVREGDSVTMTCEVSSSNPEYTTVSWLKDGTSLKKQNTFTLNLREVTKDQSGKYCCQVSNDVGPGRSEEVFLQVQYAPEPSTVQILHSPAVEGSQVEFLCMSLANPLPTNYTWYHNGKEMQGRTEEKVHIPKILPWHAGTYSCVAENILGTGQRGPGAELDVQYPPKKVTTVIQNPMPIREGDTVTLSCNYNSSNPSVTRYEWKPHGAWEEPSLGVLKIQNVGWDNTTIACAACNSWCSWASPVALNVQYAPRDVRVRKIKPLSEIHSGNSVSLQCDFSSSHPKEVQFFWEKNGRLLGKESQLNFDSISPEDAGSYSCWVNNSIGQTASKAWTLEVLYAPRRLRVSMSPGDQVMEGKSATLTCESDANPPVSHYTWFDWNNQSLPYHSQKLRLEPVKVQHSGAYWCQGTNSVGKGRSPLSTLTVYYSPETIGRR
Briefly: ELISA, Ab 0.10 nM. As for the experimental part:
(§1) In order to detect the binding activity of CD22 human-murine chimeric antibodies to CD22 protein, the purified human CD22-ECD-His protein obtained in Example 2 was diluted with PBS to a final concentration of 2 μg/mL, and then added to 96-well ELISA plate at 100 μl/well. The plate was sealed with plastic film and incubated overnight at 4° C., the plate was washed 2 times with PBS the next day, and then a blocking solution [PBS+2% (w/w) BSA] was added for blocking at room temperature for 2 hours. […] After incubation at 37° C. for 2 hours, the plate was washed 3 times with PBS. HRP (horseradish peroxidase)-labeled secondary antibody (purchased from Sigma, catalog number: A0170) was added, and incubated at 37° C. for 2 hours, and the plate was washed 5 times with PBS. TMB substrate was added at 50 μl/well, and incubated at room temperature for 30 minutes, then a stop solution (1.0 N HCl) was added at 50 μl/well.

For assay [2], the target named is T1, human CD22-ECD-His protein. As to the kind of experiment: ELISA, Ab 10.00 nM. The procedure:
as §1

In assay [3] the target is T1, human CD22-ECD-His protein. As to the kind of experiment: ELISA, Ab 0.01 nM. The procedure: as §1
The target of assay [4] is T1, human CD22-ECD-His protein. As to the kind of experiment: ELISA, Ab 0.0001 nM. As for the experimental part:
as §1

Another assay has as its target T2, human CD22 domain5-7-His (human, UniProt P20273 414-687).
T2 construct: also called hCD22 domain5-7-His; not shown: His tag
T2 sequence: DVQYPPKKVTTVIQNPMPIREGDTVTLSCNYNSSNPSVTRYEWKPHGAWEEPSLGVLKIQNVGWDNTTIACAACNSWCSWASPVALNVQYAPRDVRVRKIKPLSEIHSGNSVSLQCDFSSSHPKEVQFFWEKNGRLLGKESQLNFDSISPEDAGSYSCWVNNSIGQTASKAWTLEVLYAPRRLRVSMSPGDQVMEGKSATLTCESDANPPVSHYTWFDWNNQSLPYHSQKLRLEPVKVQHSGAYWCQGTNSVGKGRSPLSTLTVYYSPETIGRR
Briefly: ELISA, human CD22 domain5-7-His coated.

In assay [5] the target is T1, human CD22-ECD-His protein. Briefly: ELISA, human CD22-ECD-His coated. The procedure: as §1
The target in assay [6] is T1, human CD22-ECD-His protein. Briefly: ELISA, Ab 0.00001 nM. The procedure:
as §1

Another assay deals with T3, human CD22 domain1-4-His (human, UniProt P20273 20-425).
T3 construct: also called hCD22 domain1-4-His; not shown: His tag
T3 sequence: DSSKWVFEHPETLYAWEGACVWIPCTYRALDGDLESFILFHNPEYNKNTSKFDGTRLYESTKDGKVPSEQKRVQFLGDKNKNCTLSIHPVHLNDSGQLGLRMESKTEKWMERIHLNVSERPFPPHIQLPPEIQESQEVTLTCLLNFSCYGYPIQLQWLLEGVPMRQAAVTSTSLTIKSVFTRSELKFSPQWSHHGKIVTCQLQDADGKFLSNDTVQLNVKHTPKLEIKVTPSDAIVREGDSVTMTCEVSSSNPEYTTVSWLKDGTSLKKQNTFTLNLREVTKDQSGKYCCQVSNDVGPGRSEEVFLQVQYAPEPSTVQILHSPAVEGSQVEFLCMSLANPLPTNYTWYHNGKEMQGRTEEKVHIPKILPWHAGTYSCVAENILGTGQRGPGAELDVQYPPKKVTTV
As to the kind of experiment: ELISA, human CD22 domain1-4-His coated.

In assay [7] the target is T1, human CD22-ECD-His protein. As to the kind of experiment: ELISA, Ab 0.001 nM. The procedure:
as §1

For assay [8], the target named is T4, murine CD22 protein (ACROBiosystems, SI2-M52Ha) (murine, UniProt P35329 22-708).
T4 construct: extracellular domain; also called murine CD22-ECD; murine CD22-ECD-His
T4 sequence (looked up): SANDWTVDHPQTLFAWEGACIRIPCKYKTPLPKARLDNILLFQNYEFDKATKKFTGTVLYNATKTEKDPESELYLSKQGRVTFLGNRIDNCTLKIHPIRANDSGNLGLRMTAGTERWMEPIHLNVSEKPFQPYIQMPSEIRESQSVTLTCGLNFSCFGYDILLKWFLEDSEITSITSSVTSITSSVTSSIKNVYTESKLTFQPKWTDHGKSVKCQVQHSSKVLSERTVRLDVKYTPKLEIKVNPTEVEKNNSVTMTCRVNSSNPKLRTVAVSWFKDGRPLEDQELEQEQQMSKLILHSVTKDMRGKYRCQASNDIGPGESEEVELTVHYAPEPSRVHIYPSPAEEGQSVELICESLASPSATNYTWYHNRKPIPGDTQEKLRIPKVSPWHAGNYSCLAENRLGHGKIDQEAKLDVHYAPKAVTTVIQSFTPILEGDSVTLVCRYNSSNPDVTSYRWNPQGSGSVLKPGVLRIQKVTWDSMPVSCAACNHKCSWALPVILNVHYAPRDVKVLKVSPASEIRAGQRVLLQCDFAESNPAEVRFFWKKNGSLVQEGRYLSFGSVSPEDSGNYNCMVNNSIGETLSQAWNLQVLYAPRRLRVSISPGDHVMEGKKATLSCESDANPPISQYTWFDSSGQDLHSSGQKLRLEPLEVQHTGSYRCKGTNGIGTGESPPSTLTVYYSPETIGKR
Briefly: ELISA, murine CD22-ECD-His coated. As for the experimental part:
as §1
(§2) In order to detect the species cross-binding activity of the chimeric antibodies, an ELISA plate was coated with commercial murine CD22 protein (ACROBiosystems, catalog number: SI2-M52Ha) and monkey CD22 protein (ACROBiosystems, catalog number: SI2-R52Ha), respectively, and the ELISA detection was performed according to the method in Example 5.1.

Assay [9] concerns the target T1, human CD22-ECD-His protein. Briefly: ELISA, Ab 100.00 nM. The procedure: as §1
The target of assay [10] is T5, monkey CD22 protein (ACROBiosystems, SI2-R52Ha) (monkey (rhesus monkey in paragraph 148), UniProt H9G1X2 18-686).
T5 construct: extracellular domain; also called monkey CD22-ECD; monkey CD22-ECD-His
T5 sequence: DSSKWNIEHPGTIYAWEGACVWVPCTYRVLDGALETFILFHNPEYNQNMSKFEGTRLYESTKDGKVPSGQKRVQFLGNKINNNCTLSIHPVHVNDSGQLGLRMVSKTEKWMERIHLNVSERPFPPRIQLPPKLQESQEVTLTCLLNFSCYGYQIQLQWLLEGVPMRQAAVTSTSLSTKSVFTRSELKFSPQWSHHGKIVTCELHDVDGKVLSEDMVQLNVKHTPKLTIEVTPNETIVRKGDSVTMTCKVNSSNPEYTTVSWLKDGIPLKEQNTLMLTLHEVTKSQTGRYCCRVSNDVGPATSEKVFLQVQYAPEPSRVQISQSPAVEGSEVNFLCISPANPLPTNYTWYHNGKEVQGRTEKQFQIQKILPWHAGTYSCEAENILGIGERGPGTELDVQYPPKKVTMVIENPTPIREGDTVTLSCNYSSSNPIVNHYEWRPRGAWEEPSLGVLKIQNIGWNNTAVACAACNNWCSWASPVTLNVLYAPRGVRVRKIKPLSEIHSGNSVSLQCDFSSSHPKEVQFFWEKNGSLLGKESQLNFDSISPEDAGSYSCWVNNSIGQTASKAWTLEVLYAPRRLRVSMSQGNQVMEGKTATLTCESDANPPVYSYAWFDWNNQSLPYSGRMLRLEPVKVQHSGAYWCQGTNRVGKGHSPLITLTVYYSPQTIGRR
As to the kind of experiment: ELISA, monkey CD22-ECD-His coated. The procedure:
as §1, §2

B1: F2.151.13 (antibody, human IgG1, lambda, V domains shown)
VH: QVHLQQPGTELMKPGASVKLSCKATGYTFRDYWLEWVKQRPGHGLEWIGEILPGSGNAYYNEKFKGKATFTADTSSNTAYMQLSSLTTEDSAIYYCARVYSNWYFDAWGKGTTVTVSS
VL: QAVVTQESALTTSPGETVTLTCRSSTGAVTTSNYANWVQEKPDHLFTGLIGGTNNQAPGVPARFSGSLIGDKAALTISGAQTEDEAIYFCALWFSNHWVFGGGTKLTVLG
notes: Human-murine chimeric IgG1, lambda
Take B1: the OD450 is 2.55 OD450 in assay [1]; 2.6 OD450 in assay [2]; 2.1 OD450 in assay [3]; 0.2 OD450 in assay [4]; 0.1 OD450 in assay [6]; 0.64 OD450 in assay [7]. Further, the OD450 in assay [9] came out at 3.28 OD450. Besides, the results for the “EC50 (read off the curve)” value (with human CD22 domain5-7-His; in [5]) were roughly 0.05 nM and roughly 0.04 nM, respectively. Moreover, the binding result (with human CD22 domain1-4-His; in assay [8]) was “no binding (tested: 100 nM)” each time.

B2: F1.192.1 (antibody, human IgG1, kappa, V domains shown)
VH: AVQLQQSGVELVRPGASVKLSCTGSDFNIKEDYIHWVKQRPEQGLEWIGWIDPENGDTEYASKFQGKATITADTSSNTAYLQLSSLTSEDTAVYYCATYGSLDYWGQGTTLTVSS
VL: DIKMTQSPSSMYAFLGERVTITCKASQGINSFLTWFQQKPGKSPKTLIYRANRLVDGVPSRFSGSGSGQDYSLTISSLEYEDVGIYYCLQYDEFPRTFGGGTKLEIKR
notes: Human-murine chimeric IgG1, kappa
For the molecule B2, the OD450 is 2.52 OD450 in assay [1]; 2.57 OD450 in assay [2]; 1.79 OD450 in [3]; 0.1 OD450 in [4]; 0.06 OD450 in assay [6]; 0.46 OD450 in assay [7]. This molecule also yielded an OD450 in assay [9] of 2.71 OD450. The “EC50 (read off the curve)” value with human CD22 domain5-7-His was roughly 0.1 nM; in [5] it was roughly 0.05 nM. The binding result (with human CD22 domain1-4-His; in assay [8]) was “no binding (tested: 100 nM)” in each case.

B3: F1.250.16 (antibody, human IgG1, kappa, V domains shown)
VH: QVQLQQSGAEQVKPGASVKMSCKASGYTFTTYPIEWMKQNHGESLDWIGNIHPYNDDTEYNEKFKGKATLTVEKSSNTVFLELSRLTSDDSAVYYCVRGDYYNSRYWYFDVWGTGTTVTVSS
VL: DIVMTQSQKFMSTTVGDRVSITCKAGQNVRTAVAWYQQKPGQSPKLLIYSASTRYIGVPERFTGSGSGTDFTLTITNMQSEDLADYFCQQYSSFPLTFGTGTKLELKR
notes: as for B2
In the case of B3, the OD450 in assay [1] was found to be 2.58 OD450; in [2] it was 2.56 OD450; in assay [3], 2.24 OD450; in assay [4], 0.21 OD450; in assay [6], 0.12 OD450; in assay [7], 0.86 OD450. In assay [9], this molecule displayed an OD450 of 3.07 OD450. Further, the binding result (with human CD22 domain5-7-His; in [8]) was “no binding (tested: 100 nM)” each time. In addition, the “EC50 (read off the curve)” value in [5] and in [10] was roughly 0.02 nM in each case.
